In the nanobody polyreactivity screen of Harvey et al. (2022):

experiment: yeast display, Sf9 membrane polyspecificity reagent, FACS + sequencing; frameworks hold sequencing errors
In short: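 Nanobodies from a synthetic yeast display library (Saccharomyces cerevisiae BJ5465), induced 36–48 hours with galactose, were stained 1 hour at 4 °C with 10% biotinylated, detergent-solubilized Sf9 membrane reagent, enriched on streptavidin microbeads, then FACS-sorted. Anti-HA (expression) and streptavidin (reagent binding) fluorescence set low and high (top ~1%) gates. Polyreactivity labels come from the gate of origin. Genes were colony-PCR amplified, MiSeq 2 × 250 sequenced and filtered by CDR length.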

| Sequence | polyreactivity (PSR sort gate) |
| --- | --- |
| QVQLVESGGGLVQAGGSLRLSCAASGITFGRNAMGWSRQAPGKERELVAAISRGGSTNYADSVKGRFTISRDNAKNTVYLQMTRLKPEDTAVYYCATAYRGRAWGYDYWGQGTQVTVSS | high polyreactivity |
| QVQLVESGGGLVQAGGSLRLSCAASGITFGRNTMGWSRQAPGKERELVAAIDSGANTYADSVKGRFTISSDNAKNTVYLQMISLKPEDSAVYYCAVDGGEFSSYGYWGQGTQVTVSW | low polyreactivity |
| QVQLVESGGGLVQAGGSLRLSCAASGITFGRNTMGWYRQAPGKERELVAAIDSGGNTYADSVKGRFTISRDNAKNTVYLQMNSLKPEDTAVYYCAVDGGEFSSYGYWGQGTEVTVSS | low polyreactivity |
| QVQLVESGGGLVQAGGSLRLSCAASGITFGRYAMGWYRQAPGKERELVAAISSRTGRTYYADSVKGRFTISRDNAKNTVYLQMNSLKPEDTAVYYCARDSKLSASYDRDDSWGQGTQVTVSS | high polyreactivity |
| QVQLVESGGGLVQAGGSLRLSCAASGITFGSNTMGLYRQAPGKERELVAVITWSGGSTYYADSVKGRFTISRDNAKNTVYLQMNSLIPEDTAVYDCAKPGEVNGQPPPQTESAYDYRGQGTQVTVSS | low polyreactivity |
| QVQLVESGGGLVQAGGSLRLSCAASGITFGSYAMGWYRQAPGKERELVATISKSGGSTYYADSVKGRFTISRDNEKNTVYLQMNSLKPEDTAVYYCARRYVAKRMDFWGQGTQVTVSS | high polyreactivity |
| QVQLVESGGGLVQAGGSLRLSCAASGITFGWYAMGLYRQAPGKERELVAAISTGSSTYYADSVKGRFTISRDNAKNTVYLQMNSLKPEDTAVYYCNAYPGPSGTLYVTPYDYWGQGTQVTVSS | high polyreactivity |
| QVQLVESGGGLVQAGGSLRLSCAASGITFGYNAMGWYRQAPGKDRELVAAITRSAGSTGYADSVKGRFTISRDNAKNTVYLQMNSLKPEDTAVYYCAAVRLSGSHRYGYWGQGTQVTVSS | high polyreactivity |
| QVQLVESGGGLVQAGGSLRLSCAASGITFGYYAMGLYRQAPGKERELVAAISWSGGRTYYADSVKGRLTISRDNAKNTVYLQMNSLKPEDTAVYYCATRYPVRRGSGPSYDYWGQGTQVTVSS | high polyreactivity |
| QVQLVESGGGLVQAGGSLRLSCAASGITFGYYAMGWSRQAAGKEWELVAAISSGGGTYYADSVKGRFTISRDNAKNTVYLQMNSLKPEDTAVYYCNVLRLYPSMDYWGHGTQVTVSS | high polyreactivity |
| QVQLVESGGGLVQAGGSLRLSCAASGITFGYYAMGWYRQAPGKERELVAAISSGGRTYYADSVKGRFTIARDNAKNTVYLQMNSLKPEDTGVYYCAVVARHPSRMDYWGQGTQVTVSS | high polyreactivity |
| QVQLVESGGGLVQAGGSLRLSCAASGITFGYYAMGWYRQAPGKERELVAAITYSGGSTYYADSVKGRFTISRDNAKNTVYLQMNSLKPEDTAVYYCNADWWAYYSFGHEYWGQGTQVTVSS | low polyreactivity |
| QVQLVESGGGLVQAGGSLRLSCAASGITFGYYAMGWYRQAPGKERELVASITSGGSTNYADSVKGRFTISRDNAKNTVYLQMNSLKPEDTAVYYCAKRYYRQYDYWGQGTQVTVSS | low polyreactivity |
| QVQLVESGGGLVQAGGSLRLSCAASGITFGYYAMGWYRQAPGKERELVATITDGGGTKYADSVKGRFTISRDNAKNTVYLQMNSLKPEDTAVYYCAAGLRHVYATEYDYWGQGTQVTVSS | low polyreactivity |
| QVQLVESGGGLVQAGGSLRLSCAASGITFHPYALGWYRQAPGKERELVARIRSTGSTNYADSVKGRFTISRDNAKNTVYLQMNSLKPEDTAVYYCAATFRTGWRPYSFYYWGQGTQVTVSS | high polyreactivity |
| QVQLVESGGGLVQAGGSLRLSCAASGITFHRYAMGWYRQAPGKERELVAGINGRGGSTYYADSVKGRFTISRDNAKNTVYLQMNSLKPEDTAVYYCNAVYAGRYFGFDYWGQGTQVTVSS | high polyreactivity |
| QVQLVESGGGLVQAGGSLRLSCAASGITFHYNAMGWYRQAPGKERELVAAISGSGSNTYYADSVKGRFTISRDNAKNTVYLQMNSLKPEDTAVYYCAKYYYSSNKWMDYWGQGTQVTVSP | high polyreactivity |
| QVQLVESGGGLVQAGGSLRLSCAASGITFIDYAMGGYRQAPGKVRELVAAITVRGSTYYADSVKGRFTISRDNAKNTVYLQMNSLKPEDTAVYYCAADTYVAADSPVTGERDSFDYWGQGTQVTVSS | low polyreactivity |
| QVQLVESGGGLVQAGGSLRLSCAASGITFKRYAMGWYIQAPGKERELVAAISDIGGRTYYADSVKGRFTISRDNAKNTVYLQMNSLKPEDTEVYYCAADYYSPVDWYYYWGQGTQVTVSS | high polyreactivity |
| QVQLVESGGGLVQAGGSLRLSCAASGITFKRYAMGWYRQAPGKERELVAAINGSGGRTYYADSVKGRFTISRDNAKNTVYLQMNSLKPEDTAVYYCNARHIYPSHYDYWGQGTQVTVSS | high polyreactivity |
| QVQLVESGGGLVQAGGSLRLSCAASGITFKRYAMGWYRQAPGKESELVATITWRDGSTYYADSVKGRFTISRDNAKNTVYLQMNSLKPEDTAVYYCAVAAYSRRSPYYHYNYWGQGTQVTVSS | high polyreactivity |

| Sequence | polyreactivity (PSR sort gate) |
| --- | --- |
| QVQLVESGGGLVQAGGSLRLSCAASGITFKSNAMGWYRQAPGKERELVAAISRRASSTYYADSVKGRFTISRDNAKNTVYLQRNSLNPEDTAVYYCNAVLPVYRTNMDYWGQGTQVSVSS | high polyreactivity |
| QVQLVESGGGLVQAGGSLRLSCAASGITFLDYAMGWYRQAPGQERELVAAISKRGGSTYYADSVKGRFTISRDKAKNTVYLQMNSLKPEDTAVYYCAAYYHSVRNDYFYYWGQGTQVTVSS | high polyreactivity |
| QVQLVESGGGLVQAGGSLRLSCAASGITFLKYAMGWYRQATGKEREFVAAISRRGGSTYYADSVKGRFTISRDNAKNTVYLQMNSLKPEDTAVYYCAALTVRGTWSQNDYWGQGTQVTVSS | low polyreactivity |
| QVQLVESGGGLVQAGGSLRLSCAASGITFLQYAVGWYRPAPGKERELVAVISRGSRTYYADSVKGRFTISRDNAKNTVYLQMNSLKPEDTAVYYCAAVRGLAVGYDYWGQGTQVTVSS | high polyreactivity |
| QVQLVESGGGLVQAGGSLRLSCAASGITFLVNAMGWYRQAPGKERELVATITSGDSTSYADSVKGRFTISRDNAKNTVYLQMNSLKPEDTAVYFCAARPGYWAQYYPVGSRNYYWGQGTQVTVSS | low polyreactivity |
| QVQLVESGGGLVQAGGSLRLSCAASGITFLVYVMGWYRQAPGKERELVAAISSGGSTYYADSVKGRFTISRDNAKNTVYLQMNSLKPEDTAVYYCSADTVGTNVVSPELDYWGQGTQVTVSS | low polyreactivity |
| QVQLVESGGGLVQAGGSLRLSCAASGITFNAYVMGWYRQAPGKERELVATISQSGGSTYYADSVKGRFTISRDNAKNTVYLQMNSLKPEDTADYYCAARKYGYSYTVTRYYWGQGTQVTVSS | high polyreactivity |
| QVQLVESGGGLVQAGGSLRLSCAASGITFNNNGMGWYRQAPGKERELVASIRSGGRTNYADSVKGRFTISRDNAKNTVYLQMNSLKPEDTAVYYCAAVWYTSRQKYDYWGQGTQVTVSS | low polyreactivity |
| QVQLVESGGGLVQAGGSLRLSCAASGITFNPYVMGWYRQAPGKERELVAVITSGGSTNYADSVKGRFTISRDNAKITVYLEMNSLKPEDTAVYYCNVDRRPYYVWRVTYDYWGQGTQVTVSS | low polyreactivity |
| QVQLVESGGGLVQAGGSLRLSCAASGITFNQYAMGWYRQAPGKERELVARITKRGGSTYYADSVKGRFTISRDNAKNTVYLQMNSLKPEDTAVYYCAARTYYQEYDYWGQGTQVTVSS | high polyreactivity |
| QVQLVESGGGLVQAGGSLRLSCAASGITFNSYAMGWYRQAPGKERELVAAITLTGGTTYYADSVKGRFTISRDNAKNTVYLQMNSLKPEDTAVYYCAAQYWWWSRFEYDSWGQGTQVTVSS | low polyreactivity |
| QVQLVESGGGLVQAGGSLRLSCAASGITFNYNAMGWYRQAPGKERELVARITWSGTRTYYADSVKGRFTISRDNSKNTVYFQMNSLKPEDTAVYYCNAGPYARYYWGQGTQVTVSS | high polyreactivity |
| QVQLVESGGGLVQAGGSLRLSCAASGITFNYYAMGWYRQAPGKERELVAVISSSGGRTYYADSVKGRFTISRDNAKNTVYLQMNSLKPEDTAVYYCAAGGSVAFYYWGQGTQVTVSS | high polyreactivity |
| QVQLVESGGGLVQAGGSLRLSCAASGITFPGYAMGWYRQAPGKERELVAAISTSGGSTYYADSVKGRFTISRDNAKNTVYLQMIRLKPEDTAVYYCAADSFVTSFHWRFDYWGQGTQVTVSS | low polyreactivity |
| QVQLVESGGGLVQAGGSLRLSCAASGITFPKYAMGWYRQAPGTERELVAAITKSGGSTYYADSVKGRFTISRDNAKNTVYLQMNSLKPEDTEVYYCAVVSRGITKYDYWGQGTQVTVSS | high polyreactivity |
| QVQLVESGGGLVQAGGSLRLSCAASGITFPLYAMGWYRQAPGKERELVASITRGGTTNYADSVKGRFTISRDNAKNTVYLQMNSLKPEDTAVYYCAAVVTRERGYDYWGQGTQVTVSS | low polyreactivity |
| QVQLVESGGGLVQAGGSLRLSCAASGITFPRYAMGWYRQAPGKERELVATITSRGGSTYYADSVKGRFTISRDNAKNTVYLQMNSLKPEDTAVYYCNAQYLLFHGYRYDYWGQCTQVTVSS | high polyreactivity |
| QVQLVESGGGLVQAGGSLRLSCAASGITFPYYAMGWYRQAPGKERELVAAISSSGGSTYYADSVKGRFTISRDNAKNTVYLQMNSLKPEDTAVYYCAAQRYIHYDYWGQGTQVTVSS | high polyreactivity |
| QVQLVESGGGLVQAGGSLRLSCAASGITFPYYDMGWYRQAAGKERELVAAIDWSGATSYYADSVKGRFTISRDNAKNTVYLQMNSLKPEDTAVYHCNADPPLDLWYVTNRIYHLYDYWGQGTQVTVSS | high polyreactivity |
| QVQLVESGGGLVQAGGSLRLSCAASGITFQHYAMGWYRQAPGKERELVAAITWRGSNTYYADSVKGRFTISRDNAKNTVYLQMNSLKPEDTAVYYCAAVLSLRSRNYWGHGTQVTVSS | high polyreactivity |
